The target of one assay is T1, cynomolgus monkey C5 (cynomolgus monkey).
T1 construct: also called cyno C5; cyno monkey C5
Kind of assay: ELISA, recombinant C5 coated at 3 µg/ml, serially diluted antibody, HRP anti-IgG4 Fc detection. The procedure: (§1) ELISA wells were coated with recombinant C5 protein of relevant species (3 μg/ml in coating buffer, 100 μl/well, 4° C. overnight). […] Sheep RBC lysis assay was performed as described in Example 3, using 5-20% cynomolgus monkey serum.
Background: ELISA stands for enzyme-linked immunosorbent assay.

For the next assay, the target named is T2, mouse C5 (mouse, UniProt P06684 19-1680, limits assumed).
T2 construct: also called recombinant mouse C5 protein
Put plainly: ELISA, wells coated with recombinant C5 (3 ug/ml), serially diluted antibody, detection with HRP anti-IgG4 Fc, OD450. The procedure:
as §1

The next assay has as its target T3, rat C5 (rat, UniProt P08650 19-1681, limits assumed).
T3 construct: also called recombinant rat C5 protein
The assay is described as above. How it is done: as §1

In a further assay the target is T4, rabbit C5 (rabbit, UniProt G1SPF9 19-673; G1SPF9 678-1675).
T4 construct: also called recombinant rabbit C5 protein
Described as above. How it is done:
as §1

T3 sequence (P08650 19-1681 limits assumed): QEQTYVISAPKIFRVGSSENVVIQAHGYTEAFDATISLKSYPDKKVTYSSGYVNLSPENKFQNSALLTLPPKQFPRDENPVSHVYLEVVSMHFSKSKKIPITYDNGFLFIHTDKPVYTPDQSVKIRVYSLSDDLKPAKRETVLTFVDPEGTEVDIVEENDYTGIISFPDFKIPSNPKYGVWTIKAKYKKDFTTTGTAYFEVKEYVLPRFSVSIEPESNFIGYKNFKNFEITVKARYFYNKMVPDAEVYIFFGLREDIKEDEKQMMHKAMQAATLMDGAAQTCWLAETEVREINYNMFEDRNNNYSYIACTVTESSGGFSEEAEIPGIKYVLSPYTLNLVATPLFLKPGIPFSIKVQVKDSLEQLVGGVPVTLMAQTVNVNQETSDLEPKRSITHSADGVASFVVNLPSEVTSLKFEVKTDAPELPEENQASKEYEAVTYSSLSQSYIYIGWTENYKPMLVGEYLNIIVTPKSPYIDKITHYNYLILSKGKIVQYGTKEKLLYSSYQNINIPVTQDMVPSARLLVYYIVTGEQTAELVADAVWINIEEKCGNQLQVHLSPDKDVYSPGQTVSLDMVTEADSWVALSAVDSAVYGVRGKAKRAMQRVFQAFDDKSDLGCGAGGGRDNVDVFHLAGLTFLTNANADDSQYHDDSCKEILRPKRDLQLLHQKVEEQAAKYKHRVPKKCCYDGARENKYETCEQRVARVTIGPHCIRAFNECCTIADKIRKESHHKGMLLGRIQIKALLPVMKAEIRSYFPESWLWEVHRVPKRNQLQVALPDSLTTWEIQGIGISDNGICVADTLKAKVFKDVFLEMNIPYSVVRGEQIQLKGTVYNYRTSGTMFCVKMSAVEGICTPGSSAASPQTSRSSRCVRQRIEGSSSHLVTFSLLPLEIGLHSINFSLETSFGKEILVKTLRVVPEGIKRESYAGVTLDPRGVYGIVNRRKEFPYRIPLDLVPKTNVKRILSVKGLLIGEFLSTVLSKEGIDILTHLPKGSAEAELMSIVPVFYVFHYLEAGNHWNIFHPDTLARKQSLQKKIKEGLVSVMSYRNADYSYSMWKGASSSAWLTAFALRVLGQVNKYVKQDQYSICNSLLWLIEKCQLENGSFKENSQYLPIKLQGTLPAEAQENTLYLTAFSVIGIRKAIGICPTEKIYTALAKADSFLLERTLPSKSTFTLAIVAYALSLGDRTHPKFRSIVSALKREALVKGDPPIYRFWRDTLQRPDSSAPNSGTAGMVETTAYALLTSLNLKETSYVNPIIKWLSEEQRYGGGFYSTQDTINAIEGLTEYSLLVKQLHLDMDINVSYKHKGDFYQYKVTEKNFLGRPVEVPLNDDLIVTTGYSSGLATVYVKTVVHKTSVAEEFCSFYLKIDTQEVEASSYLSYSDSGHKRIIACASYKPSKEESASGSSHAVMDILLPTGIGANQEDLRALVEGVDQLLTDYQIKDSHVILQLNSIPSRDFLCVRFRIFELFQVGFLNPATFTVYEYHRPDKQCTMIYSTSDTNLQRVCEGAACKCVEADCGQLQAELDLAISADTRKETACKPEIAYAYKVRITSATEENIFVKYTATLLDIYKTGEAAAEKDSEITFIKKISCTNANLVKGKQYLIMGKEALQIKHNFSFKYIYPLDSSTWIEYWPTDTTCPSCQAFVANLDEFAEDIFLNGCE
T4 sequence (beta, as listed by the source limits assumed, chain 1 of 2): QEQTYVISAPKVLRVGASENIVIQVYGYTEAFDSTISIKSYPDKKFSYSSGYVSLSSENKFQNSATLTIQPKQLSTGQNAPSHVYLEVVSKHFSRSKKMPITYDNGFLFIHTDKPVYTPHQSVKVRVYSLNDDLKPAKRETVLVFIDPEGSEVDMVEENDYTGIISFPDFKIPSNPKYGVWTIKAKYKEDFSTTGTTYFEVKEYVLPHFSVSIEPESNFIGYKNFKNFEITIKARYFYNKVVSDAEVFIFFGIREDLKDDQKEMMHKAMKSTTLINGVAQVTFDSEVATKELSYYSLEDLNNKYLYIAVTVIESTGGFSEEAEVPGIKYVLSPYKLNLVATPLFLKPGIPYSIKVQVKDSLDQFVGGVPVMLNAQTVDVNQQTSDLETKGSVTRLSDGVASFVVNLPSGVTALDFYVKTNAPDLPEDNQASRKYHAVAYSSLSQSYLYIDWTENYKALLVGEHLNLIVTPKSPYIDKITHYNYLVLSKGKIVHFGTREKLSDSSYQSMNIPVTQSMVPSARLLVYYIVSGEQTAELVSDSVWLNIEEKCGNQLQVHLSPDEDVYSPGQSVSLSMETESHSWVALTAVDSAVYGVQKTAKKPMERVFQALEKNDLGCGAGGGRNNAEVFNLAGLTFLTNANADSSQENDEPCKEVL
T4 sequence (alpha, as listed by the source limits assumed, chain 2 of 2): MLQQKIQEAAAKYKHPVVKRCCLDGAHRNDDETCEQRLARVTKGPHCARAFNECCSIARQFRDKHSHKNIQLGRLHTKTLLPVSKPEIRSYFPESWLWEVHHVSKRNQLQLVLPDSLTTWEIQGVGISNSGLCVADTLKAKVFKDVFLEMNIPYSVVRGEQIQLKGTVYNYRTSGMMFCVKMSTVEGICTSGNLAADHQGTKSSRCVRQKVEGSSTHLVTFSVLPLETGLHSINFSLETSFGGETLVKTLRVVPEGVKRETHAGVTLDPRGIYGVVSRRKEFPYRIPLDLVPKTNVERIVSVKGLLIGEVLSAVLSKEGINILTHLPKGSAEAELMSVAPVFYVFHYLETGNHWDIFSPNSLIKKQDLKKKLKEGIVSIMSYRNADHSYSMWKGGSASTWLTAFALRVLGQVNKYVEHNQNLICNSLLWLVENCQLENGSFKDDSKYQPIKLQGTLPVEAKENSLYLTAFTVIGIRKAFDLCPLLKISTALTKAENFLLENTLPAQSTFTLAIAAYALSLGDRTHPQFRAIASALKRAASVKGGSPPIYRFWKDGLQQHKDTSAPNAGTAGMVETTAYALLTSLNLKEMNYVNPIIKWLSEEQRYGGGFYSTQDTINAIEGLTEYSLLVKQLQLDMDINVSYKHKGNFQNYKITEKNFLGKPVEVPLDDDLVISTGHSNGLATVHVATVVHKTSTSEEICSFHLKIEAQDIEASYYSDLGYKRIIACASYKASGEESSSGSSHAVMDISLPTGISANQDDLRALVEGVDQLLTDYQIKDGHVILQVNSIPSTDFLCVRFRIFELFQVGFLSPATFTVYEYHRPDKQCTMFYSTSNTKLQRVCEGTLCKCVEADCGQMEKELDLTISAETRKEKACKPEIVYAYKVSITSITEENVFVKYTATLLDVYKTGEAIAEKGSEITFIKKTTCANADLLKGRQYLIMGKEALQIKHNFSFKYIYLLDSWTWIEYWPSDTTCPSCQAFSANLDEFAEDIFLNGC
T2 sequence (P06684 19-1680 limits assumed): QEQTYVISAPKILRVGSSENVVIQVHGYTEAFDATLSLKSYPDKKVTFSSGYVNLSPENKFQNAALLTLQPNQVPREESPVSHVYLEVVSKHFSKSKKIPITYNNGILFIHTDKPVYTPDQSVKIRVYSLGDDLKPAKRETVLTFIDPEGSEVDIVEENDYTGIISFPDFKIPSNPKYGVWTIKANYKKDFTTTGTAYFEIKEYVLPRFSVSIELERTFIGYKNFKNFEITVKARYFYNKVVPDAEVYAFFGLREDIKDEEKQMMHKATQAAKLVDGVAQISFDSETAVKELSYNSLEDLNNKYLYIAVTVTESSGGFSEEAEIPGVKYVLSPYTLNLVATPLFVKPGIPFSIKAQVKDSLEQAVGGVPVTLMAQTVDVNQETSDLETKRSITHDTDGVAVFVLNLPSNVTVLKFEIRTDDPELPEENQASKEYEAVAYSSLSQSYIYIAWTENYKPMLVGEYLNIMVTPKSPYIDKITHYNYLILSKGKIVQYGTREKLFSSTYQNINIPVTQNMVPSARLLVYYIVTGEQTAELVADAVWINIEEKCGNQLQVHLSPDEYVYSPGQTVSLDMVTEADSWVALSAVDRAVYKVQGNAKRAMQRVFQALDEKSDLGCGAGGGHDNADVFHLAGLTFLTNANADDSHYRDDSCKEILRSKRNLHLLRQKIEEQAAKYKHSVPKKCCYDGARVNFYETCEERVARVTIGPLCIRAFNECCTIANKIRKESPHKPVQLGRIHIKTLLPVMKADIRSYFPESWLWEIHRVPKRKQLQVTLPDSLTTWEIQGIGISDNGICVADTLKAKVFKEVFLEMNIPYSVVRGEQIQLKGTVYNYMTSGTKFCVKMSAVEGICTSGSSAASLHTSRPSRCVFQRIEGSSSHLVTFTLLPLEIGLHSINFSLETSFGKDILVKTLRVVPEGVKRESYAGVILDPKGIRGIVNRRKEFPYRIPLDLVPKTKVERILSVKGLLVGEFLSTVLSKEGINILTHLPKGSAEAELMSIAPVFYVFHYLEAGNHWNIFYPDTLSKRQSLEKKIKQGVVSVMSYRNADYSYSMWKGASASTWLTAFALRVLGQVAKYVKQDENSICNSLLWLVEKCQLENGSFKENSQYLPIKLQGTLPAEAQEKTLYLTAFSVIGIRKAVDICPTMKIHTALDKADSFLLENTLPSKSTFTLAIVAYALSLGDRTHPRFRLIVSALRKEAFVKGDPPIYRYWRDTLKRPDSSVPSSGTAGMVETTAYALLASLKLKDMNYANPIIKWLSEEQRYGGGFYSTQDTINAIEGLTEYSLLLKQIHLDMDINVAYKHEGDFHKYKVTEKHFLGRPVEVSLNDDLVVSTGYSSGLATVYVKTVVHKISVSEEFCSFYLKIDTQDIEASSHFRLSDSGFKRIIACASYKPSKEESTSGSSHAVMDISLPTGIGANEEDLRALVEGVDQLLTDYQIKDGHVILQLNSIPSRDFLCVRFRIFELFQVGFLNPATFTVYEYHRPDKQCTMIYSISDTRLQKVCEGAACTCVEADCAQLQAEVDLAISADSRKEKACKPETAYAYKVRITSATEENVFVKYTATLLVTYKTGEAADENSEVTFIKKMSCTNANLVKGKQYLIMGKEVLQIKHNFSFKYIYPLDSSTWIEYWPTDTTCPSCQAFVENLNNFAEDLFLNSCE

B1: Y32H/Q38R/L54H anti-C5 mAb (antibody, human IgG4 S228P, V domains shown)
VH: QVQLVQSGAEVKKPGASVKVSCKASGYIFSNHWIQWVRQAPGQGLEWMGEILPGSGSTEYTENFKDRVTMTRDTSTSTVYMELSSLRSEDTAVYYCARYFFGSSPNWYFDVWGQGTLVTVSS
VL: DIQMTQSPSSLSASVGDRVTITCGASENIYGALNWYQRKPGKAPKLLIYGATNHADGVPSRFSGSGSGTDFTLTISSLQPEDFATYYCQNVLNTPLTFGQGTKVEIK
As to B1, the EC50 with cynomolgus monkey C5 is approximately 0.2 µg/mL. Besides, the binding result with mouse C5, in the assay with rat C5 and in the assay with rabbit C5 was “no binding” each time.

What is called EC50 is the concentration giving half of the maximal effect.

For the origin of these results see patent publication US20240076360A1 (University of Pennsylvania, published 2024).
